Residue numbers refer to the chain shown, from its start.
B1: 370 (protein)
chain: LDNGLARTPTMGWLHWERFMCNLDCQEEPDSCISEKLFMEMAEQMVSEGWKDAGYEYLCIDDCWMAPQRDSEGRLQADPQRFPHGIRQLANYVHSKGLKLGIYADVGNKTCAGFPGSFGYYDIDAQTFADWGVDLLKFDGCYCDSLENLADGYKHMSLALNRTGRSIVYSCEWPLYMWPFQKPNYTEIRQYCNHWRNFADIDDSWKSIKSILDWTSRNQERIVDVAGPGGWNDPDMLVIGNFGLSWDQQVTQMALWAIMAAPLFMSNDLRHISPQAKALLQDKDVIAINQDPLGKQGYQLRKGDNFEVWERPLSGDAWAVAIINRQEIGGPRSYTIPVASLGKGVACNPACFITQLLPVKRQLGFYNWTSRLKSHINPTGTVLLQLENTMQMSLKDLL
modifications: Synthetic Polypeptide sequence of Variant No. 370 of mature Human GLA
B2: 481 (protein)
chain: LDNGLARTPTMGWLHWERFMCNLDCQEEPDSCISEKLFMEMAERMVSEGWKDAGYEYLCIDDCWMAPQRDSEGRLQADPQRFPHGIRQLANYVHSKGLKLGIYADVGNKTCAGFPGSFGYYDIDAQTFADWGVDLLKFDGCYCDSLENLADGYKHMSLALNRTGRSIVYSCEWPLYMWPFQKPNYTEIRQYCNHWRNFADIDDSWKSIKSILDWTSFNQERIVDVAGPGGWNDPDMLVIGNFGLSWNQQVTQMALWAIMAAPLFMSNDLRHISPQAKALLQDKDVIAINQDPLGKQGYQLRQGDNFEVWERPLSGLAWAVAMINRQEIGGPRSYTIAVASLGKGVACNPACFITQLLPVKRKLGFYEWTSRLRSHINPTGTVLLQLENTGQMSLKDLL
modifications: Synthetic Polypeptide sequence of Variant No. 481 of mature Human GLA
B3: 482 (protein)
chain: B2 chain with Q385G, G390M
modifications: Synthetic Polypeptide sequence of Variant No. 482 of mature Human GLA
B4: 486 (protein)
chain: B2 chain with G390C
modifications: Synthetic Polypeptide sequence of Variant No. 486 of mature Human GLA
B5: 488 (protein)
chain: B2 chain with T389N, G390M
modifications: Synthetic Polypeptide sequence of Variant No. 488 of mature Human GLA
B6: 485 (protein)
chain: B2 chain with G390M, M392W
modifications: Synthetic Polypeptide sequence of Variant No. 485 of mature Human GLA
B7: 484 (protein)
chain: B2 chain with G390M, M392V
modifications: Synthetic Polypeptide sequence of Variant No. 484 of mature Human GLA
B8: 483 (protein)
chain: B2 chain with G390M, M392C
modifications: Synthetic Polypeptide sequence of Variant No. 483 of mature Human GLA
B9: 489 (protein)
chain: B2 chain with T389I, G390M
modifications: Synthetic Polypeptide sequence of Variant No. 489 of mature Human GLA
B10: 487 (protein)
chain: B2 chain with T389G, G390M
modifications: Synthetic Polypeptide sequence of Variant No. 487 of mature Human GLA

assay: HTP-analysis of supernatants pretreated with base (MUGal hydrolysis); type: biochemical; details: activity of the variant/activity of Rd4BB (SEQ ID NO: 15); challenge at pH 9.65
How it was run: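 GLA variants were secreted by transformed INVSc1 yeast grown 66-84 h at 30° C. Supernatants were exposed to neutral-to-basic buffers (pH 7.0-9.7) at 37° C for 1-18 h, then assayed with MUGal in acidic citrate/McIlvaine buffer, with fluorescence read after quenching.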

Question: With B1 as the molecule, how does the “Relative Activity of GLA Variants After Challenge at pH 9.65” value (from here on “Relative Activity … at pH 9.65”) read?
Answer: + (0.5 to 1.5 relative activity over Rd4BB (SEQ ID NO: 15))

Question: For B2, which “Relative Activity … at pH 9.65” value is on record?
Answer: + (0.5 to 1.5 relative activity over Rd4BB (SEQ ID NO: 15))

Question: With B3 as the molecule, how does the “Relative Activity … at pH 9.65” value read?
Answer: + (0.5 to 1.5 relative activity over Rd4BB (SEQ ID NO: 15))

Question: With B4 as the molecule, how does the “Relative Activity … at pH 9.65” value read?
Answer: + (0.5 to 1.5 relative activity over Rd4BB (SEQ ID NO: 15))

Question: For B5, which “Relative Activity … at pH 9.65” value is on record?
Answer: + (0.5 to 1.5 relative activity over Rd4BB (SEQ ID NO: 15))

Question: With B6 as the molecule, how does the “Relative Activity … at pH 9.65” value read?
Answer: + (0.5 to 1.5 relative activity over Rd4BB (SEQ ID NO: 15))

Question: Which “Relative Activity … at pH 9.65” value does the source give for B7 here?
Answer: + (0.5 to 1.5 relative activity over Rd4BB (SEQ ID NO: 15))

Question: Which “Relative Activity … at pH 9.65” value does the source give for B8 here?
Answer: + (0.5 to 1.5 relative activity over Rd4BB (SEQ ID NO: 15))

Question: Which “Relative Activity … at pH 9.65” value does the source give for B9 here?
Answer: + (0.5 to 1.5 relative activity over Rd4BB (SEQ ID NO: 15))

Question: With B10 as the molecule, how does the “Relative Activity … at pH 9.65” value read?
Answer: + (0.5 to 1.5 relative activity over Rd4BB (SEQ ID NO: 15))

assay: HTP-analysis of supernatants pretreated with acid (MUGal hydrolysis); type: biochemical; details: activity of the variant/activity of Rd4BB (SEQ ID NO: 15); challenge at pH 3.7
How it was run: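 GLA variants were secreted from INVSc1 yeast grown 66-84 h at 30° C. in SD-Ura with 2% glucose; supernatants were mixed with McIlvaine buffer pH 3.3-4.3 and held at 37° C. for 1-3 h. Residual activity on MUGal at pH 4.8 was then measured by fluorescence.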

Question: With B1 as the molecule, how does the “Relative Activity of GLA Variants After Challenge at pH 3.7” value (from here on “Relative Activity … at pH 3.7”) read?
Answer: ++ (>1.5 to 2.5 relative activity over Rd4BB (SEQ ID NO: 15))

Question: With B2 as the molecule, how does the “Relative Activity … at pH 3.7” value read?
Answer: + (0.5 to 1.5 relative activity over Rd4BB (SEQ ID NO: 15))

Question: For B3, which “Relative Activity … at pH 3.7” value is on record?
Answer: + (0.5 to 1.5 relative activity over Rd4BB (SEQ ID NO: 15))

Question: For B4, which “Relative Activity … at pH 3.7” value is on record?
Answer: + (0.5 to 1.5 relative activity over Rd4BB (SEQ ID NO: 15))

Question: With B5 as the molecule, how does the “Relative Activity … at pH 3.7” value read?
Answer: + (0.5 to 1.5 relative activity over Rd4BB (SEQ ID NO: 15))

Question: For B6, which “Relative Activity … at pH 3.7” value is on record?
Answer: + (0.5 to 1.5 relative activity over Rd4BB (SEQ ID NO: 15))

Question: For B7, which “Relative Activity … at pH 3.7” value is on record?
Answer: + (0.5 to 1.5 relative activity over Rd4BB (SEQ ID NO: 15))

Question: With B8 as the molecule, how does the “Relative Activity … at pH 3.7” value read?
Answer: + (0.5 to 1.5 relative activity over Rd4BB (SEQ ID NO: 15))

Question: Which “Relative Activity … at pH 3.7” value does the source give for B9 here?
Answer: + (0.5 to 1.5 relative activity over Rd4BB (SEQ ID NO: 15))

Question: Which “Relative Activity … at pH 3.7” value does the source give for B10 here?
Answer: + (0.5 to 1.5 relative activity over Rd4BB (SEQ ID NO: 15))

assay: HTP-analysis of yeast culture supernatants, no challenge (MUGal hydrolysis); type: biochemical; details: activity of the variant/activity of Rd4BB (SEQ ID NO: 15)
How it was run: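 Activity read as 4-methylumbelliferyl α-D-galactopyranoside hydrolysis: fluorescence (355/448 nm) after sodium carbonate stop, following 30-180 min at 37° C with 2 mM MUGal stock at pH 4.6–4.8. Enzyme source is unchallenged culture supernatant of INVSc1 yeast expressing GLA variants, grown 66-84 h at 30° C.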

Question: With B1 as the molecule, how does the “Relative Activity of GLA Variants After No Challenge (NC)” value read?
Answer: + (0.5 to 1.5 relative activity over Rd4BB (SEQ ID NO: 15))

Question: For B2, which “Relative Activity of GLA Variants After No Challenge (NC)” value is on record?
Answer: + (0.5 to 1.5 relative activity over Rd4BB (SEQ ID NO: 15))

Question: With B3 as the molecule, how does the “Relative Activity of GLA Variants After No Challenge (NC)” value read?
Answer: + (0.5 to 1.5 relative activity over Rd4BB (SEQ ID NO: 15))

Question: For B4, which “Relative Activity of GLA Variants After No Challenge (NC)” value is on record?
Answer: + (0.5 to 1.5 relative activity over Rd4BB (SEQ ID NO: 15))

Question: Which “Relative Activity of GLA Variants After No Challenge (NC)” value does the source give for B5 here?
Answer: + (0.5 to 1.5 relative activity over Rd4BB (SEQ ID NO: 15))

Question: With B6 as the molecule, how does the “Relative Activity of GLA Variants After No Challenge (NC)” value read?
Answer: + (0.5 to 1.5 relative activity over Rd4BB (SEQ ID NO: 15))

Question: For B7, which “Relative Activity of GLA Variants After No Challenge (NC)” value is on record?
Answer: + (0.5 to 1.5 relative activity over Rd4BB (SEQ ID NO: 15))

Question: Which “Relative Activity of GLA Variants After No Challenge (NC)” value does the source give for B8 here?
Answer: + (0.5 to 1.5 relative activity over Rd4BB (SEQ ID NO: 15))

Question: Which “Relative Activity of GLA Variants After No Challenge (NC)” value does the source give for B9 here?
Answer: + (0.5 to 1.5 relative activity over Rd4BB (SEQ ID NO: 15))

Question: Which “Relative Activity of GLA Variants After No Challenge (NC)” value does the source give for B10 here?
Answer: + (0.5 to 1.5 relative activity over Rd4BB (SEQ ID NO: 15))

From patent US11278600B2, “Human alpha-galactosidase variants” (Codexis, Inc., priority 2014, dated 2022)
